Results as given in patent US20110293618A1 (MEDICAL AND BIOLOGICAL LABORATORIES, published 2011).
Residue numbers refer to the chain shown, from its start.

What was measured:
[1] = molecular target: T1, purified partial protein containing the FA58C domain of human CLCP1 (amino acid positions 284 to 526), … (human, UniProt Q96PD2 284-526); assay: ELISA, hybridoma screening on immunogen-coated plate
T1 construct: also called partial protein containing FA58C domain; region containing FA58C; not shown: myc-His tag
T1 sequence: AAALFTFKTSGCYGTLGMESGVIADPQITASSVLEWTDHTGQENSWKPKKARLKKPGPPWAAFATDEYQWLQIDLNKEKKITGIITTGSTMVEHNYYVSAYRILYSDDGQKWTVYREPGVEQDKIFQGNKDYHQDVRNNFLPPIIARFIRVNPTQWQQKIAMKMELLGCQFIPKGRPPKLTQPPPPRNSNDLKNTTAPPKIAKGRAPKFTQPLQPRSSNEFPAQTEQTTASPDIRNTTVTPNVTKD
Source text: After expansion culture in HT medium [RPMI1640, HT-supplement (Invitrogen; 21060-017), Penicillin, and Streptomycin] supplemented with 15% FBS, the cells were cloned into single clones by the limiting dilution method. Eleven hybridoma clones producing anti-human CLCP1 antibody were obtained by the method described above.

[2] = molecular target: T2, endogenous human CLCP1 in H460-LNM35 cell lysate (human, UniProt Q96PD2 67-775); assay: Western blot of H460-LNM35 lysate; almost no signal in CLCP1-knockdown cells
T2 construct: Same protein as m1 but solubilised: SDS lysate for Western blot (denatured, reduced) or NP-40 lysate for immunoprecipitation; also called endogenous CLCP1
T2 sequence: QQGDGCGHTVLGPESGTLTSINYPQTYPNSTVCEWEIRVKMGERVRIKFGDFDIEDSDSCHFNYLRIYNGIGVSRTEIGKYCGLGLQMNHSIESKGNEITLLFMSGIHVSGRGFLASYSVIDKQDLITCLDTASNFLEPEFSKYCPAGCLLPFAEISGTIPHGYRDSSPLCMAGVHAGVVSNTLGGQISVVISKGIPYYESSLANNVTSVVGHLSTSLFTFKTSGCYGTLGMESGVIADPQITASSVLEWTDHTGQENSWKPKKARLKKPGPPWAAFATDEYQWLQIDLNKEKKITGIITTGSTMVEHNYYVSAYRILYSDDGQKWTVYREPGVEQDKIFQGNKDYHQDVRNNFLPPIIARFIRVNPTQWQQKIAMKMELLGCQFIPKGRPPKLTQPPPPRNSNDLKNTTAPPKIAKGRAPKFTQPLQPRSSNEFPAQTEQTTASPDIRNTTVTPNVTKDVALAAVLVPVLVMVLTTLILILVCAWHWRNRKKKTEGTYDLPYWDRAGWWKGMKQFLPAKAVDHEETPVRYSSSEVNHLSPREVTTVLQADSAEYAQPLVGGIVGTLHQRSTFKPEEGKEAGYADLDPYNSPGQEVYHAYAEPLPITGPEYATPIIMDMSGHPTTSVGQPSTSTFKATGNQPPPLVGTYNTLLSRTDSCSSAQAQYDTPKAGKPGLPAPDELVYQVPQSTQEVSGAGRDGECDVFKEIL
Method: As described in the reference, Nagai H, et al., Oncogene 26: 4025-4031 (2007), a subline that constitutively expresses a CLCP1 siRNA as a short hairpin RNA (shRNA) biosynthesized in cells has been established from the high expressing CLCP1 cell line H460-LNM35. […] Western blotting was carried out using siCLCP1-3 #9 cells (CLCP1 Knockdown in FIG. 8) and H460-LNM35 cells.
2×10⁶ cells of the high expressing CLCP1 cell line H460-LNM35 and siCLCP1-3 #9 line were each suspended in lysis buffer [50 mM Tris (pH 6.8), 5% glycerol, 2% SDS], and the protein concentration was determined using the DC Protein Assay Kit (Bio-Rad). Then, 2-mercaptoethanol was added at 5.3% to the lysates. After heating, 20 μg each of the lysates were subjected to SDS-PAGE, followed by Western blotting with each of the antibodies and an HRP-labeled anti-mouse or anti-rabbit antibody. […] Meanwhile, there was almost no detectable signal in siCLCP1-3 #9 cells.

[3] = molecular target: T3, human CLCP1 (CUB, LCCL-homology, coagulation factor V/VIII homology domains protein), full length, on cells (human, UniProt Q96PD2 67-775); assay: flow cytometry on H460-LNM35 cells, antibody 5 ug/ml, PE anti-mouse IgG
T3 construct: also called ESDN; DCBLD2
T3 sequence: T2 sequence
Method: The antibodies prepared as described above were assessed for the reactivity to endogenous human CLCP1 by testing their reactivity to cells of high CLCP1-expressing line H460-LNM35 according to the following method. Anti-human CLCP1 antibody was purified from culture supernatant of each hybridoma clone by a conventional affinity purification method using Protein A-Sepharose. The purified antibodies were each diluted to 5 μg/ml, and the reaction intensity to H460-LNM35 was assessed by flow cytometry. In this assay, the anti-CLCP1 monoclonal antibody bound on the cell surface was detected by using a phycoerythrin-labeled anti-mouse IgG antibody. All samples were processed under the same conditions.

[4] = molecular target: T3, human CLCP1 (CUB, LCCL-homology, …); assay: flow cytometry on NCI-H460-LNM35 cells
[5] = molecular target: T3, human CLCP1 (CUB, LCCL-homology, …); assay: cell-based or functional assay
[6] = molecular target: T4, E. coli-produced recombinant protein corresponding to aa 195-aa 453 in SEQ ID NO: 2 (human, UniProt Q96PD2 195-453); assay: ELISA on purified E. coli fragment
T4 construct: pET28a, BL21, urea-solubilised, TALON-purified; vector-encoded tag residues not described
T4 sequence: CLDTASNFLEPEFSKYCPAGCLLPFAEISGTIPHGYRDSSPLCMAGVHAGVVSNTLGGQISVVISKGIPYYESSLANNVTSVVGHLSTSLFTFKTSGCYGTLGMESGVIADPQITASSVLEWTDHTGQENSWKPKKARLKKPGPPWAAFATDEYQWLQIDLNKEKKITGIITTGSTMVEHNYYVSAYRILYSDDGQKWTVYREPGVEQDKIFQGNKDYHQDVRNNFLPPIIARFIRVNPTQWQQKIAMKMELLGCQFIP
Method: (§1) Each antibody was assayed by ELISA using the purified proteins prepared described above.

[7] = molecular target: T5, E. coli-produced recombinant protein corresponding to aa 195-aa 465 in SEQ ID NO: 2 (human, UniProt Q96PD2 195-465); assay: ELISA on purified E. coli fragment
T5 construct: pET28a expression system; vector-encoded tag residues not described
T5 sequence: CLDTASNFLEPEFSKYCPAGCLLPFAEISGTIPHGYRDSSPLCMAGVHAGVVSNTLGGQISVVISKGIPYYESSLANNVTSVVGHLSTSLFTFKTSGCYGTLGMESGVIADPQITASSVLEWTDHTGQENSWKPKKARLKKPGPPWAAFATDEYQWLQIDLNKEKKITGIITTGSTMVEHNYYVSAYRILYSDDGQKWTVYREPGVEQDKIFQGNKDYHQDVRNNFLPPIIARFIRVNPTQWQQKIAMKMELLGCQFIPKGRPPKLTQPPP
Method: as §1

[8] = molecular target: T6, E. coli-produced recombinant protein corresponding to aa 195-aa 457 in SEQ ID NO: 2 (human, UniProt Q96PD2 195-457); assay: ELISA on purified E. coli fragment
T6 construct: pET28a expression system; vector-encoded tag residues not described
T6 sequence: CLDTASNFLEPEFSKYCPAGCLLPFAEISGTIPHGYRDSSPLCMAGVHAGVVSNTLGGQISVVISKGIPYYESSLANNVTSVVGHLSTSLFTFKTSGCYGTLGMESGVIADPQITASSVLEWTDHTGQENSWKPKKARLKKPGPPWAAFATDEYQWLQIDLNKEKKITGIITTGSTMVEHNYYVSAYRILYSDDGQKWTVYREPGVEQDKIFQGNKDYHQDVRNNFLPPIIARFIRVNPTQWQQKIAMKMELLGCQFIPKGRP
Method: as §1

[9] = molecular target: T7, E. coli-produced recombinant protein corresponding to aa 195-aa 461 in SEQ ID NO: 2 (human, UniProt Q96PD2 195-461); assay: ELISA on purified E. coli fragment
T7 construct: pET28a expression system; vector-encoded tag residues not described
T7 sequence: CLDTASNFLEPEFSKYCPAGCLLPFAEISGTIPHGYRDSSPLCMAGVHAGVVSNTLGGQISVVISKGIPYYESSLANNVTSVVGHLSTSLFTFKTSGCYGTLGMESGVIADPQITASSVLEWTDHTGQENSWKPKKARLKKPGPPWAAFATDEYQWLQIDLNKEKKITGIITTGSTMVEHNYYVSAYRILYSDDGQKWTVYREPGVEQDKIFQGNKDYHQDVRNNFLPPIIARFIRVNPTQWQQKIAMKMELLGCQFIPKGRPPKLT
Method: as §1

[10] = molecular target: T8, purified protein of the whole extracellular domain of human CLCP1 (amino acid positions 1 to 526), myc-His … (human, UniProt Q96PD2 67-526); assay: ELISA on purified extracellular domain protein, culture supernatants
T8 construct: also called whole extracellular domain protein; complete extracellular domain protein; not shown: myc-His tag
T8 sequence: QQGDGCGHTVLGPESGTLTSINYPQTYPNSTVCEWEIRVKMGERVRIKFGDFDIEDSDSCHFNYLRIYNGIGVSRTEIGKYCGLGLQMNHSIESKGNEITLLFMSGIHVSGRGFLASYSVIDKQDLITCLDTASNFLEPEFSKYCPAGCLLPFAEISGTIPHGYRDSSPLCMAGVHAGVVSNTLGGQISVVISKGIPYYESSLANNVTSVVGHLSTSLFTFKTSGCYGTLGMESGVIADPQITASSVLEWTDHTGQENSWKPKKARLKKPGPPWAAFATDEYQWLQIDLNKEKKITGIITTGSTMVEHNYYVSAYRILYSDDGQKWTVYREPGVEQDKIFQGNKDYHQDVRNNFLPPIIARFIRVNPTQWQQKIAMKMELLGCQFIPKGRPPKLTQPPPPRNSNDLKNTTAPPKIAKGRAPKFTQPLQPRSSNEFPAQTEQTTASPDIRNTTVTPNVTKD
Method: Using the culture supernatants whose IgG concentrations had been determined, the activities of the chimeric antibody, humanized antibody, and serine-substituted humanized antibody were assessed and compared by ELISA for the purified protein of the extracellular domain of CLCP1 described in Example 21. […] Thus, humanized FA19-1 was successfully designed (FIGS. 42 and 43).

B1: FA17-9 (antibody, V domains shown)
VH: EVQLQQSGPELVKPGASVKMSCKASGYTFTTYVMHWVKQKPGQGLEWIGYINPYNDGTKYNEKFKGKATLTSDKSSSTAYMELSSLTSEDSAVYYCARGANYYGSSYNWSFDVWGAGTTVTVSS
VL: DIQMTQSPSSLSASLGGKVTITCKASQDINKYIAWYQHKPGEGPRLLIHYTSTLQPGIPSRFSGSGSGRDYSFSISNLEPEDIATYYCLQYDYLWTFGGGTKL
notes: Mouse monoclonal; also called antibody No. FA17-9; Antibody 1
Q: Does B1 bind [1]?
A: Result: binds

Q: Does B1 bind [2]?
A: Result: binds

Q: Does B1 bind [3]?
A: Result: binds

B2: chimeric FA17-9 antibody (antibody, V domains shown)
VH: B1 VH
VL: B1 VL
notes: Variable regions of FA17-9 joined to constant regions derived from human IgG1 (LONZA vector)
Q: Does B2 bind [4]?
A: Result: binds

B3: chimeric FA19-1 antibody (antibody, V domains shown)
VH: B1 VH with V33I, K67E, S106N
VL: B1 VL with K24R, E42K, Y50H, S52C
Q: With B3 as the binder, how does the “ADCC, % cytotoxicity (lactate dehydrogenase release), A549 targets, antibody 10 ug/ml, E/T ratio 50, five donors” value [5] read?
A: The value was 47.1%.

Q: What about the “ADCC, % cytotoxicity (lactate dehydrogenase release), NCI-H460-LNM35 targets, antibody 10 ug/ml, E/T ratio 50” value [5] of the same binder?
A: Its value is 32.4%.

B4: FA19-1 (antibody, V domains shown)
VH: B1 VH with V33I, K67E, S106N
VL: B1 VL with K24R, E42K, Y50H, S52C
notes: Mouse monoclonal; also called antibody No. FA19-1; Antibody 2
Q: Does B4 bind [6]?
A: Result: no binding

Q: Does B4 bind [7]?
A: Result: no binding

Q: Does B4 bind [8]?
A: Result: no binding

Q: Does B4 bind [9]?
A: Result: no binding

B5: 6AA-17-2 (antibody, V domains shown)
VH: EVQLQQSGAELVRPGALVKLSCKASGFNIKDYYMHWVKQRPEQGLEWIGWIDPENDNTIYDPKFQGKASITADTSSNTAYLHLSSLTSEDTAVYYCARAYGYDDYYAMEYWGQGTSVTVSS
VL: NIMMTQSPSSLAVSAGEKVTMSCKSSQSVLYSSNQKNYLAWYQQKPGQSPKLLIYWTSTRESGVPDRFTGSGSGTDFTLTISSVQAEDLAIYYCHQYLYSYTFGGGTKL
notes: Mouse monoclonal raised against the partial protein containing the FA58C domain; also called Antibody 3
Q: What does the source list for B5?
A: binding result [6]: no binding; binding result [9]: no binding

B6: serine-substituted humanized FA19-1 antibody (FA19RHA and serine-substituted light chain) (antibody, V domains shown)
VH: QVQLVQSGAEVKKPGASVKVSCKASGYTFTTYIMHWVRQAPGQRLEWIGYINPYNDGTKYNEKFKGRVTVTRDTSANTAYMELSSLKSEDTAVYYCARGANYYGSNYNWSFDVWGQGTLVTVSS
VL: DIQMTQSPSSLSASVGDRVTITCRASQDINKYIAWYQQKPGKAPKLLIYHTSTLQPGVPSRFSGSGSGTDFTLTISSLQPEDFATYYCLQYDYLWTFGGGTKVEIK
notes: it is the cysteine of the CDR2 motif HTCTLQP; also called serine-substituted humanized antibody; serine-substituted antibody
Q: Does B6 bind [10]?
A: Result: binds
